Non-standard residues stand in square brackets, D forms with d. No end group written: not given here.
How the values were obtained:
[1] = molecular target: T1, PBX proteins of murine B16 melanoma cells (mouse (murine B16 melanoma cells), UniProt P41778 1-430, limits assumed); experiment: cell-based or functional assay
T1 sequence (looked up): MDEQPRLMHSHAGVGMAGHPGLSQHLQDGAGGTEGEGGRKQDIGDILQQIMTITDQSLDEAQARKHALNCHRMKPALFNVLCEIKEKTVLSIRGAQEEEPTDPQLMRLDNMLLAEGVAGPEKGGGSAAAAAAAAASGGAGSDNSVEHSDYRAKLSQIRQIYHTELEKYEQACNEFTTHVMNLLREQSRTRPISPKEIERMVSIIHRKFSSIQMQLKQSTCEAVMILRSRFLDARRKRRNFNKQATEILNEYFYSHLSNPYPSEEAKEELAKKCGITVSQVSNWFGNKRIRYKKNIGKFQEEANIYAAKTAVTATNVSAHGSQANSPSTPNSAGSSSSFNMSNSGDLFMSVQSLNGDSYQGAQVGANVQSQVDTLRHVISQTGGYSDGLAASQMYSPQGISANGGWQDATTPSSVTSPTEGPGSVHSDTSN

[2] = molecular target: PBX proteins of human cancer cell lines (A549, LNCaP, SK-OV3, A498, J82) (human (human cell lines)); experiment: cell-based or functional assay

[dW]YPWMKKHHRRRRRRRR[dR] [HXArg9(2D)]
IC50 (µM), MTT assay, B16F10 [1]: 20 µM | IC50 (µM), MTT assay, A498 [2]: 24 µM | IC50 (µM), MTT assay, A549 [2]: 19 µM | IC50 (µM), MTT assay, J82 [2]: 22 µM | IC50 (µM), MTT assay, LNCaP [2]: 21 µM | IC50 (µM), MTT assay, SK-OV3 [2]: 22 µM

From patent US20090286738A1 (ST GEORGE S ENTERPRISES, published 2009)
